Data as given in paper PMC11549370, “Two distinct regulatory pathways govern Cct2-Atg8 binding in the process of solid aggrephagy” (EMBO Reports, 2024).
Values belong to the molecule of their own block, whether it stands above or below them.

Tests used:
Atg11 = Atg11 (UniProt Q12527); assay: anti-FLAG co-IP, anti-HA blot; settings: reference: wild-type 3×HA-Cct2; sites S412,S470
LC3C = LC3C (UniProt Q9BXW4); assay: anti-FLAG co-IP, anti-HA blot; settings: reference: HA-CCT2 wild type; sites S458
GST-Cct2 = target: T1, GST-Cct2 (S. cerevisiae, UniProt P39076 1-527); assay: pull-down; in vitro GST pulldown: GST-tagged protein on GST beads, prey added in binding buffer B (1 mM EDTA, 1 mM EGTA, 150 mM NaCl, 1% Triton X-100 in 1×PBS), 3 h, 4 °C; SDS-PAGE, Coomassie staining; settings: both partners purified
T1 construct: Cct2, subunit of the TRiC complex, S. cerevisiae; the CCT2 gene cloned into pGEX-4T-1; also called WT GST-Cct2; pGEX-4T-1-Cct2; source: E. coli, purified; not shown: GST, N-terminal, kept
T1 sequence (P39076 whole entry): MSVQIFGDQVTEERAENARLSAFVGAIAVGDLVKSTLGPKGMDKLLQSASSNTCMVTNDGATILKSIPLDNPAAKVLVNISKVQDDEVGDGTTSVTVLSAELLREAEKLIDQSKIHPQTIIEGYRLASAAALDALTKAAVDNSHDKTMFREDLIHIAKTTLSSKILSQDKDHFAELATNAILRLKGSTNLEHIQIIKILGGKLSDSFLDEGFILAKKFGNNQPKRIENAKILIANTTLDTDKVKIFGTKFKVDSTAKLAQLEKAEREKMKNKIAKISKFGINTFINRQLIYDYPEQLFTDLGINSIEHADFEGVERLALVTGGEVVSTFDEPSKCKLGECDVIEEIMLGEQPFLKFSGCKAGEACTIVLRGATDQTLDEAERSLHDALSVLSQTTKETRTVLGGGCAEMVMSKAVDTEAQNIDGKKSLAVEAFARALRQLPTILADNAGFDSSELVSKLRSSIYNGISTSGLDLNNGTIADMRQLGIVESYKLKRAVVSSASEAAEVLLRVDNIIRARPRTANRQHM

GST-Cct2 D473A = target: T2, GST-Cct2 D473A (S. cerevisiae, UniProt P39076 1-527, D473A); assay: as above; settings: both partners purified
T2 construct: Cct2, S. cerevisiae; also called pGEX-4T-1-Cct2 D473A; source: E. coli, purified; not shown: GST, N-terminal, kept
T2 sequence (P39076 whole entry D473A): as the sequence (P39076 whole entry) above, with D473A counted along it

GST-Cct2 I487E = target: T3, GST-Cct2 I487E (S. cerevisiae, UniProt P39076 1-527, I487E); assay: as above; settings: both partners purified
T3 construct: Cct2, S. cerevisiae; also called pGEX-4T-1-Cct2 I487E; source: E. coli, purified; not shown: GST, N-terminal, kept
T3 sequence (P39076 whole entry I487E): as the sequence (P39076 whole entry) above, with I487E counted along it

[1] = target: T4, GST-Cct2 S412A-S470A (2A) (S. cerevisiae, UniProt P39076 1-527, S412A | S470A); assay: as above; settings: both partners purified
T4 construct: Cct2, S. cerevisiae; also called Cct2-2A mutant protein; pGEX-4T-1-Cct2 S412A-S470A(2A); source: E. coli, purified; not shown: GST, N-terminal, kept
T4 sequence (P39076 whole entry S412A/S470A): as the sequence (P39076 whole entry) above, with S412A, S470A counted along it

[2] = target: T5, GST-Cct2 phosphorylated in vitro by Atg1 (S. cerevisiae, UniProt P39076 1-527, phosphorylated by Atg1; the paper maps the sites to S412 and S470); assay: pull-down; GST-Cct2 first incubated with Atg1-3×FLAG and ATP (30 °C, 30 min), enriched on GST beads, then His-Atg8 or Atg11 CC4 added in interaction buffer (1 mM EDTA, 1 mM EGTA, 150 mM NaCl, 1% Triton X-100 in 1×PBS), 2 h, 4 °C; Coomassie staining; settings: both partners purified
T5 construct: Cct2, S. cerevisiae; also called phosphorylated GST-Cct2 WT; phosphorylated products; source: E. coli, purified, then incubated with WT Atg1-3×FLAG (from yeast) and ATP and enriched on GST beads; not shown: GST, N-terminal, kept
T5 sequence (P39076 whole entry): as the sequence (P39076 whole entry) above

- binding against the reference (Atg11): weaker
Molecule: Cct2 (from UniProt P39076) 3×HA-Cct2 S412A-S470A

- binding against the reference (LC3C): weaker
Molecule: CCT2 (hCCT2) (from UniProt P78371) HA-CCT2 S458A

- binding result (GST-Cct2): binds
- binding result (GST-Cct2 D473A): binds
- binding result (GST-Cct2 I487E): binds
- binding result [1]: binds
- binding result [2]: binds
B1: His-Atg8 (natural protein, S. cerevisiae, UniProt P38182 1-117, looked up)
chain: MKSTFKSEYPFEKRKAESERIADRFKNRIPVICEKAEKSDIPEIDKRKYLVPADLTVGQFVYVIRKRIMLPPEKAIFIFVNDTLPPTAALMSAIYQEHKDKDGFLYVTYSGENTFGR
notes: Atg8, S. cerevisiae; source: E. coli, purified; not shown: His, N-terminal, kept
